As a reminder, the Km is the concentration of substrate that gives half-maximal velocity. One may read the Vmax as the rate approached at saturating substrate.

Substitutions are numbered along the chain they refer to. Names may count otherwise.

The target in data set [1] is T1, Gentiana triflora GtCGT (GtUF6CGT1) variant V93Q/Y193F, SEQ ID NO: 61 (Gentiana triflora, UniProt A0A0B6VIJ5, V93Q/Y193F).
T1 sequence (A0A0B6VIJ5 1-477 V93Q/Y193F): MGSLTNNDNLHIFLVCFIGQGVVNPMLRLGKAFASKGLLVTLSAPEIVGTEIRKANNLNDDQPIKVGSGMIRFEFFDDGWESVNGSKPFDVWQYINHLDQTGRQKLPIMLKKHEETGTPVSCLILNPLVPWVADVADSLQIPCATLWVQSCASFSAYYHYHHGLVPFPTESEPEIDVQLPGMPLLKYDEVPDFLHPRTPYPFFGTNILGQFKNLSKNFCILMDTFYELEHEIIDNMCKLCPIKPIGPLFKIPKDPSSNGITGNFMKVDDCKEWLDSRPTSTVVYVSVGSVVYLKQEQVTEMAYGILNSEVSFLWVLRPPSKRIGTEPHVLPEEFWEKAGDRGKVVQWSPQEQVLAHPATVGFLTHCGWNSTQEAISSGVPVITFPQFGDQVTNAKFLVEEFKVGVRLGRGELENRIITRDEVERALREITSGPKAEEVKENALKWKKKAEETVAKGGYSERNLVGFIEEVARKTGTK
The data set can be described thus: enzyme kinetics of purified N-terminal 6xHis GtCGT V93Q/Y193F, FK to dcII, UDP-Glo Glycosyltransferase Assay. It is filed as biochemical. As for the experimental part: Each plasmid was constructed by PCR amplification of pCDF-GtCGT and pCDF-GtCGTmut using GtCGT_N_His_IV_F and GtCGT_N_His_IV_R primers, followed by blunt-end ligation through DpnI treatment and T4 PNK and T4 ligase treatment. Each of the two plasmids thus constructed was transformed into the E. coli BL21(DE3) strain, followed by seed culture in a test tube containing 10 mL of LB and then culture at 37° C. until OD600 reached 0.8 in a flask containing 500 mL of LB. After treatment with 1 mM IPTG for enzyme expression, additional culture was carried out at 20° C. for 16 hours, and cells were collected by centrifugation and then resuspended in 30 mL of lysis buffer (50 mM NaH2PO4, 0.3 M NaCl, 10 mM imidazole, pH 7.5). The cells were disrupted by ultrasonication and then centrifuged at 10,000 rpm and 4° C. for 40 minutes to obtain a supernatant containing water-soluble proteins. […]
Here, a UDP-Glo Glycosyltransferase Assay Kit (Promega) was used to determine the extent of reaction. Since this kit enables measurement of free UDP generated as a reaction byproduct by luminescence, 200 μL of an enzyme reaction solution containing 0.1 μM enzyme and various concentrations of FK (50 mM HEPES, 0.1 mM UDP-glucose, 5 mM MgCl2, pH 7.5) was allowed to react at 25° C. for 1 hour, 25 μL thereof was taken out, and the amount of emitted light was measured using the kit.

A further data set has as its system aloesone. The data set can be described thus: Aloesin production from aloesone by GtCGT and variants in E. coli BL21(DE3), flask culture. It is filed as cell-based. As for the experimental part:
Also, in LC-MS/MS for aloesin analysis, MS (Agilent 6550 iFunnel Q-TOF LC/MS System) coupled with ultra HPLC (UHPLC; 1290 Infinity II LC System; Agilent) was used. Here, an Eclipse-plus C18 column was used, and 0.1% formic acid was used as buffer A, and acetonitrile to which 0.1% formic acid was added was used as buffer B.
Thereafter, in order to test the production of aloesin, the pCDF-GtCGT or pCDF-GtCGT^V93Q/Y193F plasmid was transformed into the BL21(DE3) strain containing pWAS-anti-pabA, pRSF-RpALS, and pBBR1-zwf plasmids, followed by flask culture.
Similarly to the test for increased production of aloesone, RpALS was additionally introduced to increase aloesin production. To this end, pCDF-RpALS-GtCGT^V93Q/Y193F was constructed instead of introducing pCDF-GtCGT^V93Q/Y193F. Specifically, RpALS was amplified from pCDF-RpALS using pCDFDuet F and pCDFDuet R primers, and inserted into the NcoI and BamHI sites of the pCA plasmid through Gibson assembly. Thereafter, four plasmids, namely pRSF-RpALS, pCDF-RpALS-GtCGT^V93Q/Y193F, pWAS-anti-pabA, and pBBR1-zwf, were transformed into E. coli BL21(DE3), which was named an ALS strain.
(§1) Mutagenesis for a specific sequence was performed in the same manner as in Example 2. Here, plasmids containing gene mutants were constructed using pCDF-RpALS-GtCGT^V93Q/Y193F as a template and using primer pairs shown in Table 11 below. The plasmids thus constructed were transformed into the BL21 (DE3) strain along with three plasmids, namely pWAS-anti-pabA, pRSF-RpALS, and pBBR1-zwf, followed by flask culture under the same conditions as in Example 3 using the strains thus constructed. The concentration of aloesin produced was measured in an MRM mode of the HPLC Triple Quadrupole Mass Spectrometer (LCMS-8050, Shimadzu) of the KAIST Biocore Center.
as §1, with “13” for “11”

Substrate in the data set “enzyme kinetics of DnrF”: Cc1c(C(=O)O)c(O)cc2c1C(=O)c1c(O)cc(O)cc1C2=O
As to the kind of experiment: enzyme kinetics of DnrF. It is filed as biochemical, Streptomyces peucetius. As to conditions: other: means ± SD, n = 3.

Substrate in data set [2]: Cc1c(C(=O)O)c(O)cc2c1C(=O)c1c(O)cc(O)cc1C2=O
The data set can be described thus: enzyme kinetics of DnrF P217K. It is filed as biochemical, Streptomyces peucetius. As to conditions: other: means ± SD, n = 3.

`Cc1c(C(=O)O)c(O)cc2c1C(=O)c1c(O)cc(O)cc1C2=O` [FK, flavokermesic acid]: in data set [1] (decrease vs wild-type GtCGT), the “KM value decreased compared to GtCGT” value is recorded as 19.5%. Besides, in data set [1] (increase vs wild-type GtCGT), the “Vmax value increased compared to GtCGT” value was determined as 18.2%.

B1: GtCGT V93Q/Y193F/P385A: GtCGT^V93Q/Y193F with additional P385A (Table 12 No. 15) (protein, listed as Gentiana triflora)
chain: T1 sequence (A0A0B6VIJ5 1-477 V93Q/Y193F) with P385A
Take B1: the aloesin production increase in the data set with aloesone (compared to conventional concentration of 0.3 μg/L (ALS strain with GtCGT^V93Q/Y193F)) was at least 14.1 fold. In addition, the aloesin production in the data set on aloesone (variant on pCDF-RpALS-GtCGT plasmid (additional RpALS), with pWAS-anti-pabA, pRSF-RpALS, pBBR1-zwf) was 4.23 µg/L.

B2: Streptomyces peucetius DnrF (aklavinone 12-hydroxylase), wild type, SEQ ID NO: 2 (Streptomyces peucetius) (protein)
chain: MALTKPDVDVLVVGGGLGGLSTALFLARRGARVLLVERHASTSVLPKAAGQNPRTMELFRFGGVADEILATDDIRGAQGDFTIKVVERVGGRVLHSFAESFEELVGATEQCTPMPWALAPQDRVEPVLVAHAAKHGAEIRFATELTSFQAGDDGVTARLRDLGTGAESTVSARYLVAADGPRSAIRESLGITRHGHGTLAHFMGVIFEADLTAVVPPGSTGWYYLQHPDFTGTFGPTDRPNRHTFYVRYDPERGERPEDYTPQRCTELIRLAVDAPGLVPDILDIQAWDMAAYIADRWREGPVLLVGDAAKVTPPTGGMGGNTAIGDGFDVAWKLAAVLRGEAGERLLDSYGAERSLVSRLVVDESLAIYAQRMAPHLLGSVPEERGTAQVVLGFRYRSTAVAAEDDDPEPTEDPRRPSGRPGFRAPHVWIEQDGTRRSTVELFGDCWVLLAAPEGGAWGQAAARAAADLGVRLDVHLVGRDVAAPSGELTRTYGIGRAGASLVRPDGVVAWRTAVAPGAEAQDQLSTLLTRLLAR
notes: purification details not in the excerpts
B2: in “enzyme kinetics of DnrF”, the Michaelis constant (Km) turned out to be 56.75 ± 4.68 µM, the Vmax worked out at 0.99 µM/min and the Vmax/Km was 0.0175 min⁻¹.

B3: Streptomyces peucetius DnrF (aklavinone 12-hydroxylase, SEQ ID NO: 2) variant P217K (Streptomyces peucetius; P217K) (protein)
chain: B2 chain with M1V, P217K
notes: as for B2
In the case of B3, in data set [2], the Km is 43.31 ± 2.64 µM, the Vmax was 1.01 µM/min and the Vmax/Km is 0.0234 min⁻¹.

The values are drawn from patent US20240102068A1, “C-GLYCOSYLTRANSFERASE VARIANTS AND USE THEREOF” (KOREA ADVANCED INSTITUTE OF SCIENCE AND TECHNOLOGY, priority 2021, published 2024).
